± gives the standard deviation of the averaged measurements.
Tested on: Saccharomyces cerevisiae
Experiment: protein stability index of tFT-peptide fusion (C-terminal peptide) (PSI (0-1 scale)); higher = more stable (slower turnover)
Conditions: genetic background: das1 deletion; temperature: 37 C
Procedure: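 MPS profiling in S. cerevisiae of the tFT-X12 degron library: putative degron peptides plus stable controls, 12 aa, fused to the C-terminus of a sfGFP-mCherry timer. Cells are FACS-sorted into 8 mCherry/sfGFP bins and deep-sequenced. PSI runs from 0 (unstable) to 1 (stable). Backgrounds are wild type, das1Δ and doa10Δ at 30 °C, and wild type, das1Δ, cdc34-1 and cdc53-1 at 37 °C; 2-3 technical replicates each.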
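Note: PSI is a weighted mean of sequencing reads over stability bins, variants kept only with over 10 reads, mCherry proximal and sfGFP distal, peptide attached via GGGS linker.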

In order of rising protein stability index:
1. VLFSVWFFLVLV  0.134 ± 0.0075
2. VFGVWVVVGCVG  0.215 ± 0.01
3. VLVLLVCVAALV  0.295 ± 0.017
4. VCLFSVCLWFVS  0.313 ± 0.011
5. VCLLVSVCLLWL  0.329 ± 0.021
6. VCVRLVHCLVLV  0.332 ± 0.0068
7. SPGFVLLAVLVI  0.356 ± 0.016
8. TLCHLTLICVRE  0.358 ± 0.011
9. VFRECSFFLVCC  0.366 ± 0.0094
10. VFGCHHLEVSVC  0.377 ± 0.0065
11. VLVWLRLRVGLR  0.381 ± 0.0098
12. VCIPLLVIRFLV  0.386 ± 0.029
13. VFFFVSFFAFSS  0.406 ± 0.0024
14. SLVIRLNIRLIL  0.414 ± 0.034
15. SSLLLLCCLLVG  0.437 ± 0.01
16. SWCLLVWIGGVF  0.451 ± 0.02
17. TCRLIQLTVTLH  0.458 ± 0.0051
18. TPLLPPSPPPSR  0.46 ± 0.0089
19. VCFWCLYVMFSL  0.463 ± 0.0068
20. VLVRVIYLLVSG  0.469 ± 0.0053
21. VAFFSVFYWLEC  0.47 ± 0.033
22. SFLACFVLAFFC  0.475 ± 0.011
23. SVLALLWVGCWL  0.478 ± 0.017
24. VIVIQGFVFVLG  0.482 ± 0.0059
25. SFFFLILFLFRD  0.484 ± 0.014
26. TCVVCSCVLQCV  0.49 ± 0.0051
27. SLIFLLVLILSL  0.493 ± 0.029
28. TLVFPRFLFLVV  0.493 ± 0.023
29. SSAFFFLLFSLA  0.511 ± 0.009
30. SSGIGLFVWVYG  0.514 ± 0.013
31. VCLVFLFQFVLI  0.517 ± 0.0061
32. VGLWFLCSLAFS  0.5344 ± 0.0014
33. SSVCVLVSCVLG  0.5353 ± 0.0013
34. VGASLVVIAIGV  0.5445 ± 0.0033
35. VARRRQQWMRGS  0.54643 ± 0.00042
36. VFFLSFIFRFFL  0.547 ± 0.013
37. SLLFLVLFFPLV  0.55 ± 0.029
38. SLPCCKVVFCVI  0.575 ± 0.01
39. VFFRVLVAGCRQ  0.5761 ± 0.0052
40. SRLLGVKVSLVC  0.581 ± 0.0085
41. SFTRYIFFLMFF  0.585 ± 0.021
42. VFRHFYTFLALC  0.5932 ± 0.0029
43. VMIFYVLGRVWD  0.594 ± 0.025
44. SVQICGFWLILG  0.5955 ± 0.0046
45. VFFPCRLLPLLF  0.595 ± 0.026
46. SPGGALVFFVLV  0.617 ± 0.0083
47. VLYCRSCFLRVS  0.6292 ± 0.0028
48. SVVVLHVHVRPP  0.63 ± 0.011
49. VFCFCRFHFFCA  0.631 ± 0.026
50. VGYSLFTFLFCA  0.6315 ± 0.0016
51. VFTGYSAFLLLC  0.6366 ± 0.0041
52. VCAFCLFFVPLP  0.6497 ± 0.0021
53. TVILVLFPSPFL  0.671 ± 0.023
54. SFPPLPPLPLPP  0.6778 ± 0.0031
55. VFCCHSSRFVFA  0.6858 ± 0.0031
56. SRGGVFYVRIHS  0.697 ± 0.018
57. VCMVLCRWRGLG  0.6993 ± 0.0046
58. VGLLFGWVWSLW  0.6999 ± 0.0055
59. SPRSIALLHLFS  0.705 ± 0.062
60. VCRCFPVCLFSF  0.706 ± 0.027
61. SPTRTCTAIRTP  0.708 ± 0.0022
62. TNHRVRHWILRV  0.713 ± 0.02
63. VIQKKKKNKITS  0.7265 ± 0.0018
64. SWGRGADRWRRA  0.7267 ± 0.0056
65. SGPTIRRRLFVH  0.7286 ± 0.0068
66. SPCSNFLECLSF  0.729 ± 0.017
67. SPSRAGQHLYYP  0.7334 ± 0.0037
68. TRPHPLRRVFIF  0.735 ± 0.013
69. SGPCSPRNLRRL  0.736 ± 0.019
70. TRSLLFANRCIV  0.737 ± 0.0079
71. SVRGGSFLVHLC  0.7525 ± 0.0012
72. SLIDPLGNLFNS  0.756 ± 0.028
73. SRVSEFVIPLGR  0.7555 ± 0.0021
74. VGKGAGVRDGSR  0.7598 ± 0.0072
75. TVCSWSALSRFM  0.76419 ± 0.00033
76. SYWNSSPKCGNW  0.7705 ± 0.0011
77. SVGWGFWARFIG  0.772 ± 0.0086
78. SRFFSSSFYRLC  0.777 ± 0.018

Same assay, conditions: genetic background: doa10 deletion; temperature: 30 C

In order of rising protein stability index:
1. VCIPLLVIRFLV  0.0616 ± 0.019
2. VFTGYSAFLLLC  0.0796 ± 0.016
3. VFRHFYTFLALC  0.111 ± 0.0013
4. VFGVWVVVGCVG  0.123 ± 0.019
5. VCLFSVCLWFVS  0.124 ± 0.0088
6. VLVLLVCVAALV  0.1463 ± 0.00088
7. SGPTIRRRLFVH  0.148 ± 0.018
8. SPRSIALLHLFS  0.154 ± 0.017
9. SVRGGSFLVHLC  0.154 ± 0.017
10. SWGRGADRWRRA  0.156 ± 0.019
11. VFFPCRLLPLLF  0.1658 ± 0.0011
12. VLYCRSCFLRVS  0.1667 ± 0.0015
13. VFFFVSFFAFSS  0.172 ± 0.016
14. SRFFSSSFYRLC  0.176 ± 0.0056
15. TLCHLTLICVRE  0.1767 ± 0.00029
16. VCVRLVHCLVLV  0.177 ± 0.01
17. VLVRVIYLLVSG  0.178 ± 0.026
18. VCLLVSVCLLWL  0.18 ± 0.023
19. SPGFVLLAVLVI  0.194 ± 0.002
20. VIQKKKKNKITS  0.197 ± 0.011
21. VLVWLRLRVGLR  0.199 ± 0.0058
22. VFGCHHLEVSVC  0.203 ± 0.012
23. SVGWGFWARFIG  0.215 ± 0.016
24. VCMVLCRWRGLG  0.219 ± 0.011
25. VFRECSFFLVCC  0.224 ± 0.0033
26. SSGIGLFVWVYG  0.226 ± 0.0051
27. TRPHPLRRVFIF  0.226 ± 0.013
28. TCRLIQLTVTLH  0.232 ± 0.0034
29. VIVIQGFVFVLG  0.234 ± 0.0035
30. SRGGVFYVRIHS  0.239 ± 0.0035
31. SFLACFVLAFFC  0.24 ± 0.0037
32. VLFSVWFFLVLV  0.241 ± 0.015
33. SSAFFFLLFSLA  0.244 ± 0.0068
34. TPLLPPSPPPSR  0.244 ± 0.0028
35. SSLLLLCCLLVG  0.248 ± 0.013
36. SWCLLVWIGGVF  0.251 ± 0.01
37. SVLALLWVGCWL  0.253 ± 0.0065
38. TNHRVRHWILRV  0.253 ± 0.022
39. VAFFSVFYWLEC  0.261 ± 0.0032
40. TRSLLFANRCIV  0.269 ± 0.0075
41. VMIFYVLGRVWD  0.27 ± 0.0079
42. VCRCFPVCLFSF  0.294 ± 0.0057
43. VGYSLFTFLFCA  0.303 ± 0.011
44. TCVVCSCVLQCV  0.305 ± 0.027
45. VGLWFLCSLAFS  0.308 ± 0.015
46. SVQICGFWLILG  0.317 ± 0.0037
47. SFFFLILFLFRD  0.318 ± 0.019
48. SLVIRLNIRLIL  0.329 ± 0.0061
49. SLPCCKVVFCVI  0.332 ± 0.0048
50. VGASLVVIAIGV  0.3442 ± 0.0029
51. SRLLGVKVSLVC  0.35 ± 0.0097
52. SSVCVLVSCVLG  0.363 ± 0.013
53. SLIFLLVLILSL  0.364 ± 0.048
54. VCFWCLYVMFSL  0.372 ± 0.0057
55. VCAFCLFFVPLP  0.3831 ± 0.0035
56. SPGGALVFFVLV  0.391 ± 0.012
57. SFTRYIFFLMFF  0.4089 ± 0.0013
58. VFCFCRFHFFCA  0.432 ± 0.019
59. VCLVFLFQFVLI  0.442 ± 0.028
60. TVILVLFPSPFL  0.448 ± 0.014
61. VFFRVLVAGCRQ  0.449 ± 0.0066
62. SLLFLVLFFPLV  0.456 ± 0.019
63. VFFLSFIFRFFL  0.482 ± 0.021
64. VFCCHSSRFVFA  0.49 ± 0.016
65. TLVFPRFLFLVV  0.518 ± 0.011
66. VARRRQQWMRGS  0.529 ± 0.0063
67. VGLLFGWVWSLW  0.5556 ± 0.0007
68. SVVVLHVHVRPP  0.593 ± 0.044
69. SFPPLPPLPLPP  0.594 ± 0.014
70. SPCSNFLECLSF  0.626 ± 0.025
71. TVCSWSALSRFM  0.631 ± 0.032
72. SPSRAGQHLYYP  0.636 ± 0.0095
73. SRVSEFVIPLGR  0.644 ± 0.023
74. SGPCSPRNLRRL  0.651 ± 0.015
75. VGKGAGVRDGSR  0.651 ± 0.017
76. SYWNSSPKCGNW  0.664 ± 0.039
77. SLIDPLGNLFNS  0.672 ± 0.024
78. SPTRTCTAIRTP  0.683 ± 0.057
